Source: article PMC7494861, “Characterization of the nucleotide-binding domain NsrF from the BceAB-type ABC-transporter NsrFP from the human pathogen Streptococcus agalactiae” (Scientific Reports, 2020)

What was measured:
Assay in all cases: purified protein
Type in all cases: biochemical, Streptococcus agalactiae
Settings in all cases: 100 mM HEPES pH 7, 10 mM Mg2+, 0 mM NaCl, 30 °C, cooperative
[1] = test system: O=c1ccn([C@@H]2O[C@H](COP(=O)(O)OP(=O)(O)OP(=O)(O)O)[C@@H](O)[C@H]2O)c(=O)[nH]1
Text: (§1) malachite green phosphate release, Hill fit on SaNsrF (SaNsrFWT)

[2] = test system: Nc1ccn([C@@H]2O[C@H](COP(=O)(O)OP(=O)(O)OP(=O)(O)O)[C@@H](O)[C@H]2O)c(=O)n1
Text: as §1

[3] = test system: Nc1nc2c(ncn2[C@@H]2O[C@H](COP(=O)(O)OP(=O)(O)OP(=O)(O)O)[C@@H](O)[C@H]2O)c(=O)[nH]1
Text: as §1

With “SaNsrF (SaNsrFWT) (Streptococcus agalactiae 2603V/R)” the K0.5 [1] was 0.90 ± 0.13 mM, the Vmax [1] was 314.8 ± 23.4 nmol/min/mg and the K0.5 [2] was 1.23 ± 0.20 mM. The Vmax [2] was 339.0 ± 30.4 nmol/min/mg, the K0.5 [3] was 0.69 ± 0.07 mM and the Vmax [3] was 221.6 ± 11.1 nmol/min/mg.
